Data published in PMC11926106.
“And” between values parts separate entries of the source, which are not always exact repeats. Identical values can stand only once.

Experiments:
[1] = molecular target: glycinin (soybean); assay: mass photometry; label-free glycinin 0.48 µg/mL adsorbed on a supported lipid bilayer of DOPC, 365 mM NaCl, 5 min incubation; oligomers counted among the membrane-adsorbed particles
[2] = molecular target: glycinin (soybean); assay: mass photometry; label-free glycinin 0.48 µg/mL adsorbed on a supported lipid bilayer of DOPC, 20 mM NaCl, 5 min incubation; oligomers counted among the membrane-adsorbed particles

Sequence of glycinin (P04776 20-495): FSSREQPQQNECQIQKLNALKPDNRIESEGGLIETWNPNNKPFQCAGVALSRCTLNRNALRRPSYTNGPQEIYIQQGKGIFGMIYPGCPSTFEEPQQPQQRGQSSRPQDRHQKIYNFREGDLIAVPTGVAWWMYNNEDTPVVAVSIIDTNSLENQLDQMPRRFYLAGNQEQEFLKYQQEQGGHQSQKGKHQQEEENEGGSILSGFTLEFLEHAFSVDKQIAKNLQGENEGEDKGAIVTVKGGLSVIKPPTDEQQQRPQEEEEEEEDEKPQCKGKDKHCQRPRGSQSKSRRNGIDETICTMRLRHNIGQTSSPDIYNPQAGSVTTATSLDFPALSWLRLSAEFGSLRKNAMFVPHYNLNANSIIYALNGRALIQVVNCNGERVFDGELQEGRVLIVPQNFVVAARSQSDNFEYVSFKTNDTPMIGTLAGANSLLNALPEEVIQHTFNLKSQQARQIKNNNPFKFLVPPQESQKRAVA

- stoichiometry N [1]: 9
- stoichiometry N [2]: 3 and 6
Substance: glycinin (natural protein)
